Paper PMC8568140, “Assembly of infectious Kaposi’s sarcoma-associated herpesvirus progeny requires formation of a pORF19 pentamer” (PLoS Biology, 2021)

What was measured:
[1] = target: Baculovirus-produced KSHV capsids lacking the portal protein pORF43, Q2HRA7;Q2HRB6; experiment: western blot of gradient-purified capsids (capsid assembly assay in insect cells), band intensity quantified; details: 3 independent biological replicates; capsid loading normalized to pORF25-V5 and pORF26; parent: est. 100; read off a plot
[2] = target: the molecule itself; experiment: crystal structure; hanging drop, 18°C, 0.1 M HEPES pH 7.5, 1.69 M lithium acetate (native, P212121, 2.6 Å); selenomethionine derivative in 0.1 M MES pH 7.4, 2 M lithium acetate (P21, P6322)
[3] = target: the molecule itself; experiment: AUC; sedimentation velocity, 40,000 rpm, 20°C, LiAc buffer with 50 mM HEPES pH 7.5 and 0.5 M lithium acetate; interface mutants at 127 μM, oxidized pORF19_(KCTD)CC at 11 μM

GFP-tagged wt pORF19 (ORF19-GFP) of KSHV V463W; L465Y
percent of parent (% of wt pORF19) [1]: 91

GFP-tagged wt pORF19 (ORF19-GFP) of KSHV loop (156MNQNQ160 replaced by a flexible linker)
percent of parent (% of wt pORF19) [1]: 92

GFP-tagged wt pORF19 (ORF19-GFP) of KSHV D173A; Q177A
percent of parent (% of wt pORF19) [1]: 93

B1: KSHV pORF19 carboxyl-terminal domain (pORF19_(KCTD)) (domain or fragment)
chain: ASHRNFTVAIVPGDPHFSVDRDLRGELMPTLYMNQNQWLPSFGPWFISLTDNAMQRRVFPKELKGTVNFQNSTSLKLISHTLTTVASTTADFFADARHLTDTQAALCLVNAYFCQKTSRQLPATPDDLLADLPQKLDLLITQLKQESGPGDFSFTYSNPQERASLAPLNKESRYPTAFFQRHKLHAMMAKAGLFPHNKGTGAPGTAPAMDLVFAITSAMFGSDIPPFSAYQWNLRAGIVALEVFILAYGLLEFGQVARGHPNRRLNLVSLLGPKFQPGALPDPNAPMLKRGQLFSFISEHYIIPTLQANPNAPVSFIFPGIILAALEARSTVSHKQPGPFVNLTGSRFNEIFEILNQQLTFRDPLALLQARTALRLATEEGLDVLLSHPSPPTLLQEIIKSQFGGGDDYDRAYFMVLGCLPVVLAVV
notes: The His tag was removed with carboxypeptidase after a first SEC; Two of the three crystal forms (P21, P6322) were of a selenomethionine derivative; also called wt pORF19_(KCTD); KSHV pORF19 CTD; source: E. coli Rosetta (DE3), purified (HisTrap, SEC); not shown: His tag, C-terminal, cleaved
stoichiometry N [2]: 5

B2: oxidized pORF19_(KCTD)CC (KSHV pORF19 CTD with P137C and P461C) (domain or fragment)
chain: ASHRNFTVAIVPGDCHFSVDRDLRGELMPTLYMNQNQWLPSFGPWFISLTDNAMQRRVFPKELKGTVNFQNSTSLKLISHTLTTVASTTADFFADARHLTDTQAALCLVNAYFCQKTSRQLPATPDDLLADLPQKLDLLITQLKQESGPGDFSFTYSNPQERASLAPLNKESRYPTAFFQRHKLHAMMAKAGLFPHNKGTGAPGTAPAMDLVFAITSAMFGSDIPPFSAYQWNLRAGIVALEVFILAYGLLEFGQVARGHPNRRLNLVSLLGPKFQPGALPDPNAPMLKRGQLFSFISEHYIIPTLQANPNAPVSFIFPGIILAALEARSTVSHKQPGCFVNLTGSRFNEIFEILNQQLTFRDPLALLQARTALRLATEEGLDVLLSHPSPPTLLQEIIKSQFGGGDDYDRAYFMVLGCLPVVLAVV
modifications: engineered inter-protomeric disulfide bond between the cysteines introduced at 137 and 461 (oxidized form)
notes: pORF19 of Kaposi's sarcoma-associated herpesvirus, residues 123 to 549, with two prolines changed to cysteines; The protomers of the oxidized form are covalently linked by the engineered disulfide bond; also called pentameric pORF19KCTDCC; source: E. coli Rosetta (DE3), purified as pORF19_(KCTD); oxidized with 2 mM GSSG in 0.5 M lithium acetate, then SEC (Superose 6 Increase); not shown: His tag, …
stoichiometry N [3]: 5
